Experimental data from patent US20230167458A1, “FORSKOLIN-INDUCIBLE PROMOTERS AND HYPOXIA-INDUCIBLE PROMOTERS” (ASKLEPIOS BIOPHARMACEUTICAL, INC., priority 2020, published 2023).

What was measured:
HEK293-F = test: Luciferase time course after forskolin induction, transient transfection of suspension HEK293-F; type: cell-based, human; settings: 20 µM forskolin
Description: The tested promoters were synthesised directly upstream of the ATG of PM-RQ plasmid and the suspension cell lines were transiently transfected with the PM-RQ plasmid.
40 ml of cells were grown in a 250 ml vented Erlenmeyer flask (Sigma-Aldrich CLS431144) at 37° C., 20% O2, 8% CO2 with agitation at 100 rpm. Cells were seeded as described in the manufacturer's instructions (300,000 cells/ml). HEK293-F were obtained from Thermofisher, R79007.
One day before transfection, the cells were counted using a haemocytometer and split to 500,000 cells/ml.
On the day of transfection, the cells are seeded to 1,000,000 cells/ml in 500 μl of appropriate medium (Freestyle 293 expression medium, 12338002) in a 24 well plate. […] of DNA per well was then added to 10 μl of OptiMem medium (Thermofisher; 11058021) and incubated for 5 minutes at room temperature.
Concurrently, 0.625 μl of Max reagent (Thermofisher, 16447100) was made up to 10 μl by addition of OptiMem and incubated for 5 minutes at room temperature. After this incubation, both mixes were added to the same tube and incubated at room temperature for 25-30 minutes. […]
24 hours after transfection, the promoters were induced by addition of […] forskolin and luciferase activity was measured 0, 3, 5 and 24 hours after induction. Luciferase activity was measured as previously described.

CHO-GS-KSV1 cell line = test: SEAP expression in stably transfected CHO-GS-KSV1, forskolin or NKH477 induction; type: cell-based, chinese hamster; settings: stable CHO-GS-KSV1, SEAP, forskolin or NKH477
Description: The forskolin-inducible promoters were then tested in a stably transfected CHO-GS-KSV1 cell line.
• CD-CHO media (Life technologies, CAT #10743029) • Corning 125 mL Polycarbonate Erlenmeyer Flask with Vent Cap (CAT #734-1885). • Gene Pulser® Electroporation Cuvettes, 0.4 cm gap (BioRad, CAT #165-2088) • Gene Pulser Xcell Total System (BioRad, CAT, #1652660) • GS-vector DNA ([…] in 100 μL TE buffer) linearised with Sca1 • Suspension cultures of CHOK1SV GS-KO host cells.
Cell suspensions of 6×10^5 cells per mL were incubated on an orbital shaker set at 8% CO2, 20% O2, 37° C., 85% relative humidity and 140 rpm overnight. 2.86×10^7 cells were centrifuged at 200 g for 3 minutes. Media was then aspirated and cell pellet resuspended in 2 mL fresh CD-CHO media to obtain a concentration of 1.43×10^7 cells per mL. 700 μL of cell suspension was added to each of two electroporation cuvettes each containing […] of linearised DNA in 100 μL of sterile TE buffer (Thermofisher, 12090015). Each cuvette was electroporated, delivering a single pulse of 300V, […] with resistance to infinity. Immediately after delivery of pulse electroplated cells were transferred to Erlenmeyer 125 mL flask containing 20 mL of CD-CHO media pre-warmed to 37° C. Electroporated cells from two cuvettes are combined into a single 125 mL flask to generate one pool of cells. Cells are cultured on an orbital shaker set at 8% CO2, 20% O2, 37° C., 85% relative humidity and 140 rpm. Cells are transferred to fresh CD-CHO media 24 hours after transfection and cell cultures monitored and given fresh CD-CHO media every 2-4 days. Usually after about 10-14 days cell numbers will be high enough to start passaging.
The transfected DNA was the pXC-17.4 expression vector (Lonza Biologics plc) where one of the promoter constructs (or a control promoter (CMV-IE) have been cloned upstream of the secreted alkaline phosphatase (SEAP) gene, which had been cloned into the multiple cloning site within the vector expression cassette. Promoters were closed into the pXC-17.4 vector using Gibson assembly. The pXC-17.4 expression vector is designed for making stable cell lines in the CHO-GSK1SV cell line as it contains the […] gene which has been knocked out of the cell line. Therefore, selection of cells in glutamine drop-out medium will select for cells that have stably integrated the plasmid.
The responsiveness of the RTV-019 promoter to different concentrations of forskolin and […] was tested in the stably transfected CHO-GS-KSV1 cell line. To this end, the stably transfected CHO-GS cells were seeded at 500,000 cells/ml and allowed to grow for 24 hrs. At this point the cells were induced by addition of the respective concentrations of forskolin and NKH477 and SEAP expression was measured as described below after 24 hours.
The promoter activity and inducibility of FMP-02, FORCYB-001, RTV-017, FORCSV-10, FOR-CMC-009, FLP-01 and RTV-019 were also tested in the stably transfected CHO-GS-KSV1 cell line. To this end, the stably transfected CHO-GS cells were seeded at 500,000 cells/ml and allowed to grow for 24 hrs. At this point the cells were exposed to […] forskolin or […] NKH477 for 24 hours. After this point, the SEAP activity in the medium was assessed as described below.
SEAP Reporter Gene Assay, chemiluminescent (Roche, CAT #11 779 842 001) was used to measure SEAP activity as per the manufacturer's protocol. All reagents and samples were fully pre-equilibrated at room temperature. Culture supernatant was collected from the stably transfected CHO-GS at the specific time points (0 h and 24 h). The supernatant was diluted 1:4 in dilution buffer and heat treated at 65° C. for 30 minutes. The heat-treated sample was then centrifuged for 30 s at maximum speed. 50 μl of the heat-treated sample was then added to 5 μl of inactivation buffer and incubated for 5 min at room temperature. 50 μl of substrate reagent was then added and incubated for 10 min at room temperature. […]

[1] = test system: Huh7 human liver cell line; test: Luciferase expression from promoters in pAAV vector (with ITRs) in Huh7, forskolin or NKH477 induction; set-up: fold induction with forskolin: dose or concentration left out as unconfirmed
Description: The forskolin-inducible promoters RTV-017, RTV-019 and FORCYB1 were then used to drive expression of luciferase in a pAAV vector in the Huh7 human liver cell line. […] This experiment was performed to investigate the effect of the Inverted Terminal Repeats (ITRs) on the activity of the promoters.
The cells were seeded, transfected and induced as described above. Luciferase expression was measured as described above. In this experiment, the cells were induced by using 20 pM forskolin or 7.2 pM of the water soluble derivative NKH477.

B1: RTV-019: synthetic forskolin-inducible promoter, SEQ ID NO: 44; 3× ATF6, 4× AP1(1) and 3× HRE1 TFBS and CMV-MP (nucleic acid)
DNA: TGACGTGCTGATGATGCGTAGCTAGTAGTTGACGTGCTGATGATGCGTAGCTAGTAGTTGACGTGCTGATGATGCGTAGCTAGTAGTTGAGTCAGATGATGCGTAGCTAGTAGTTGAGTCAGATGATGCGTAGCTAGTAGTTGAGTCAGATGATGCGTAGCTAGTAGTTGAGTCAGATGATGCGTAGCTAGTAGTCTGCACGTAGATGATGCGTAGCTAGTAGTCTGCACGTAGATGATGCGTAGCTAGTAGTCTGCACGTAGATGATGCGTAGCTAGTAGTGCAGTTAGCGTAGCTGAGGTACCGTCGACGATATCGGATCCAGGTCTATATAAGCAGAGCTCGTTTAGTGAACCGTCAGATCGCCTAGATACGCCATCCACGCTGTTTTGACCTCCATAGAAGATCGCCACC
modifications: Synp-RTV-019
notes: 3× ATF6, 4× AP1(1) and 3× HRE1 TFBS and CMV-MP
relative rank of promoter (fold induction/strength) (HEK293-F): strongest
relative rank of promoter strength (CHO-GS-KSV1 cell line): strongest
fold induction with forskolin ([1]; Huh7): 98 fold
luciferase activity without induction (background) ([1]; Huh7): low background activity
fold induction with NKH477 ([1]; Huh7, 7.2 pM NKH477): 86 fold
luciferase activity following induction ([1]; Huh7, or 7.2 pM NKH477): high activity
